To fix the notation:
B1: C3102 (antibody, V domains shown)
VH: QVQLVQSGAEVKKPGSSVKVSCKASGGTFRRYAISWVRQAPGQGLEWMGGIIPIAGAADYAQKFQARVTITADESTSTAYLELSSLRSEDTAVYYCAREISYCSGAPCYAGYYDYGMDVWGQGTTVTVSS
VL: QSVLTQPPSASGTPGQRVTISCSGNSSNIGSNSVNWYQQLPGTAPKLLIKSTNQRPSGVPDRFSGSKSGTSASLAISGLQSEDEADYYCAAWEDVLNAVVFGGGTMLTV
notes: source: 293-6E cells, transfected, purified (Protein G Sepharose)
B2: B1026 (antibody, V domains shown)
VH: QMQLVQSGPEIKKPGTSVKVSCKASGFTFSNSAVQWVRQARGQRLEWIGWIVVGSGDPNYAQKFQERVTLTRDMSTSTAYMELSSLRSEDTAVYYCATNHCSRTICSDGFDIWGQGTVVTVSS
VL: EIVLTQSPVSLSLSPGERATLSCRASQTVRSSYFVWYQQKLGQAPRLLIYSASSRAAGIPDRFSGSGSGTDFTLTISRLEPEDFAVYYCQQYGSSPWTFGQGTKVEIK
notes: as for B1
B3: C3108 (antibody, V domains shown)
VH: QVQLQESGPGLVKPSQTLSLTCTVSGGSISSGGYYWNWIRQSPVKGLEWIGYIYYSGGTYYNPSLRSRLTISLDTSNNQFSLRLNSVTAADTAIYYCARDQGAITFGTDAFEIWGQGTMVTVSS
VL: DIQMTQSPSSLSASVGDRVTITCQASQDISKYLNWYQQKPGKAPKLLIYGASTLKAGVPSRFSGSGSGTDFTFTISSLQPEDIATYYCQQYDSLPPTFGGGTKVEIK
notes: as for B1
B4: B1011 (antibody, V domains shown)
VH: QVQLVQSGAEVKKPGASVKVSCKASGYTFISYYTHWVRQAPGQGLEWMGIINPSDGYTSYAQKFQGRVTMTRDTSASTVYMELSSLRSEDTAVYYCARDSSIAARVVAWGQGTLVTVSS
VL: DIQMTQSPSSLSASVGDRVTITCQASQDIYNYLNWYQQKPGKAPKLLIFDAINLETGVPSRFSGSGSGTDFTFTISSLQPEDIATYYCQQHDNLPYSFGQGTKLEIK
notes: as for B1
B5: B1012 (antibody, V domains shown)
VH: QVQLVQSGAEVKKPGASVKVSCKASGYTFISYYTHWVRQAPGQGLEWMGIINPSDGYTSYAQKFQGRVTMTRDTSASTVYMELSSLRSEDTAVYYCARDSSIAARVVAWGQGTLVTVSS
VL: DIQMTQSPSSLSASVGDRVTITCQASQDIGNYLNWYQQKPGKAPKLLIFDASNLEAGVPSRFSASGSGTDFTFAISSLQPEDIAAYYCQQHDDLPYSFGQGTTLEIK
notes: as for B1
B6: B1034 (antibody, V domains shown)
VH: QVQLVQSGSEVKKPGASVKVSCKASGNTFITYYTHWVRQAPGQGLEWMGVIKPSDGYTNYAQKFQGRVTMTRDTSASTVYMELSSLTSDDTAVYYCARDSSIAARVVDWGQGTLVTVSS
VL: DIQMTQSPSSLSASVGDRVTITCQASQDIYNYLNWYQQKPGKAPKLLIFDAINLETGVPSRFSGSGSGTDFTLTISSLQPEDIATYYCQQHDNLPYSFGQGTKLEIK
notes: as for B1
B7: C2655 (antibody, V domains shown)
VH: QVQLVQSGAEVKKPGSSVKVSCKASGGTFNSYAISWVRQAPGQGLEWMGGIIHVLGTANYAQRFQGRVTITADESTSTVYMELSSLRSEDTAVYYCARVGAPLGRADSGYDFYYYGMDVWGQGTTVTVSS
VL: not shown
notes: as for B1
B8: C2606 (antibody, V domains shown)
VH: QVQLVQSGAEVKKPGSSVKVSCKASGDTFRSYAISWVRQAPGQGLEWMGRIIPMLGITTYEQKYQGRLKIIADKSTSTAYMELSSLRSEDTAVYFCARDGVGATEPYYYDYWGQGTLVTVSS
VL: QSVLTQPASVSGSPGQSIIISCTGTSSDVGKYDFVSWYQQHPGKAPKLMIYDVSKRPSGVSDRFSGSKSGNTASLTISGLQAEDEADYHCASYTSDSSYLVFGGGTKLTVL
notes: as for B1
B9: C3055 (antibody, V domains shown)
VH: QVQLVQSGAEVKKPGSSVNVSCRASGGTFSSKTISWVRQAPGQGLEWMGKIFPILGVANYAQKFQGRVTITADRSTNTAYMELNSLRSEDTAIYYCATEEGYSSSRSLPAEYFRQWGQGTLVTVSS
VL: QSVLTQPPSVSGAPGQRVTISCTGSNSNIGAGYDVHWYQQLPGTAPKLLIYANTNRPSGVPDRFSGSKSGTSASLAITGLQAEDEADYYCQSYDSGLSGSLFGGGTKLTVL
notes: as for B1
B10: C3095 (antibody, V domains shown)
VH: EVQLVETGGGLIQPGGSLRLSCAASEFIVSANYMHWVRQAPGQGLEWVSVIYAGGSTFYADSVKGRFTISRDNSKNSLYLQMNSLRAEDTAVYYCARGLGDYFDFWGQGTLVTVSS
VL: DIQMTQSPSTLSASVGDRVTITCRASQSFSDWLAWYQQKPGSAPKLLIYRASSLESGVPSRFSGSGSGTEFTLTISSLQPDDFATYYCQQYNTYPLTFGGGTKVEIK
notes: as for B1
B11: B2064 (antibody, V domains shown)
VH: QVQLVQSGAEVKKPGSSVNVSCKASGGTLNIYTFSWVRQAPGQGLEWVGTIVPLVGKANYPHKFQGRVTITADKSTSTVNMELSSLRSEDTAVYYCASEVLDNLRDGYNFWGQGTLVTVSS
VL: DIQMTQSPSSLSASVGDRVTITCRASQSVSSYLNWYQQKPGKAPKLLIYAVSSLQSGVPSRFSGSGSGTDFTLTISSLQPEDFATYYCQQTYNTLTFGGGTKVEIK
notes: as for B1

This note sets out measurements from publication PMC9849103 (Nature Communications, 2023).

In the assay the target is WT RBD (SARS-CoV-2 Wuhan-Hu-1 spike receptor binding domain) (SARS-CoV-2 (Wuhan-Hu-1), UniProt P0DTC2). Nature of the assay: BLI. Particulars: both partners purified.
As to B1, the affinity, expressed as Kd, was 0.639 nM.

Regarding B2, the Kd – broadly, the free concentration of one partner at which half of the binding sites on the other are occupied at equilibrium, for simple one-to-one binding – was determined as 12 nM. B3: the affinity, expressed as Kd, was 0.96 nM. The figure for B4 is 0.893 nM.

For B5, the Kd stood at 0.572 nM.

The molecule B6 yielded a Kd of 0.734 nM.

As for B7, the affinity, expressed as Kd, was 1.34 nM. The figure for B8 is 0.743 nM. The figure for B9 is 0.592 nM; for B10 it is 0.00158 nM. The result for B11 reads 0.866 nM.
